The data set is described as follows: self-splicing fitness, log relative to wild type (ln ratio); higher = more splicing; Tetrahymena group I intron in knt gene, E. coli kanamycin selection, DiMSum; sequences stand for … in CUCUCU…GGAGGGAAAAGUUAUCAGGCAUGCACCUGGUAGCUAGUCUUUAAACCAAUAGAUUGCAUCGGUUUAAAAGGCAAGACCGUCAAAUUGCGGGAAAGGGGUCAACAGCCGUUCAGUACCAAGUCUCAGGGGAAACUUUGAGAUGGCCUUGCAAAGGGUAUGGUAAUAAGCUGACGGACAUGGUCCUAACCACGCAGCCAAGUCCUAAGUCAACAGAUCUUCUGUUGAUAUGGAUGCAGUUCACAGACUAAAUGUCGGUCGGGGAAGAUGUAUUCUUCUCAUAAGAUAUAGUCGGACCUCUCCUUAAUGGGAGCUAGCGGAUGAAGUGAUGCAACACUGGAGCCGCUGGGAACUAAUUUGUAUGCGAAAGUAUAUUGAUUAGUUUUGGAGUACUCGUGGUCG
Put shortly: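 A randomised library covering all eight P1ex-region intron nucleotides was built with the intron in the knt kanamycin-resistance gene on pET-22b(+) and held in E. coli BL21(DE3). Cells were grown overnight at 37°C or 30°C on LB agar, with or without 25 μg/mL kanamycin, plus 100 μg/mL carbenicillin, 50 μM IPTG and 0.2% rhamnose, and pooled colonies were amplicon-sequenced on an Illumina HiSeq 2500. DiMSum fitness is the error-weighted combination of wild-type-normalised replicate fold changes, kanamycin versus none.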

± gives the uncertainty stated by the source.

With UCGGAGCAAUAUUACGGGCA, the “self-splicing fitness (ln)” value is, setting by setting: (30 °C) -2.38 ± 0.16; (37 °C) -0.971 ± 0.13.
UCGGAGCAAUAUUACGGUAA: the “self-splicing fitness (ln)” value was -3.18 ± 0.21 (30 °C) and -1.68 ± 0.23 (37 °C).
In the case of UCGGAGCAAUAUUACGUCCC, the “self-splicing fitness (ln)” value (30 °C) is -1.39 ± 0.46.
As for UCGGAGCAAUAUUACGUGAA, the “self-splicing fitness (ln)” value is -3.41 ± 0.39 (30 °C) and -1.63 ± 0.14 (37 °C).
In the same order, the values of UCGGAGCAAUAUUACGUGGA are -1.28 ± 0.2 and -1.48 ± 0.18.
As to UCGGAGCAAUAUUACGUUUC, the “self-splicing fitness (ln)” value (37 °C) is -2.02 ± 0.43.
On to UCGUAGCAAUAUUACGAACA, for which the “self-splicing fitness (ln)” value was -2.55 ± 0.28 (30 °C) and -1.82 ± 0.2 (37 °C).
For UCGUAGCAAUAUUACGACUU, the “self-splicing fitness (ln)” value is -2.7 ± 0.22 (30 °C) and -0.781 ± 0.17 (37 °C).
For the sequence UCGUAGCAAUAUUACGAGCA, the “self-splicing fitness (ln)” value was -0.579 ± 0.3 (30 °C) and -1.13 ± 0.24 (37 °C).
Take UCGUAGCAAUAUUACGAUUU: the “self-splicing fitness (ln)” value is -3.1 ± 0.25 (30 °C) and -2.4 ± 0.24 (37 °C).
UCGUAGCAAUAUUACGCAAC: the “self-splicing fitness (ln)” value (37 °C) was -2.42 ± 0.48.
In the case of UCGUAGCAAUAUUACGCAAG, the “self-splicing fitness (ln)” value runs as follows: (30 °C) -3.91 ± 0.35; (37 °C) -2.12 ± 0.27.
On to UCGUAGCAAUAUUACGCGCA, for which the “self-splicing fitness (ln)” value (30 °C) was -0.601 ± 0.11 and the “self-splicing fitness (ln)” value (37 °C) is -0.0623 ± 0.15.
UCGUAGCAAUAUUACGCUAG: the “self-splicing fitness (ln)” value by setting is: (30 °C) -2.95 ± 0.26; (37 °C) -2.32 ± 0.29.
As to UCGUAGCAAUAUUACGCUCU, the “self-splicing fitness (ln)” value was -3.62 ± 0.32 (30 °C) and -0.606 ± 0.18 (37 °C).
Turning to UCGUAGCAAUAUUACGGACG, the “self-splicing fitness (ln)” value (30 °C) was -2.58 ± 0.24 and the “self-splicing fitness (ln)” value (37 °C) is -1.68 ± 0.21.
UCGUAGCAAUAUUACGGAGC: the “self-splicing fitness (ln)” value (30 °C) is -2.59 ± 0.18 and the “self-splicing fitness (ln)” value (37 °C) was -2.35 ± 0.39.
On to UCGUAGCAAUAUUACGGGUG, for which the “self-splicing fitness (ln)” value (30 °C) is -1.66 ± 0.11 and the “self-splicing fitness (ln)” value (37 °C) is -2.66 ± 0.14.
On to UCGUAGCAAUAUUACGGUAA, for which the “self-splicing fitness (ln)” value reads like this: (30 °C) -2.67 ± 0.35; (37 °C) 0.253 ± 0.19.
As to UCGUAGCAAUAUUACGUCCC, the “self-splicing fitness (ln)” value (30 °C) is -2.74 ± 0.3.
In the case of UCGUAGCAAUAUUACGUGAA, the “self-splicing fitness (ln)” value runs as follows: (30 °C) -2.73 ± 0.16; (37 °C) -1.8 ± 0.17.
With UCGUAGCAAUAUUACGUGAU, the “self-splicing fitness (ln)” value is -2.2 ± 0.2 (30 °C) and -1.48 ± 0.46 (37 °C).
In the same order, the values of UCGUAGCAAUAUUACGUGGU are -3.45 ± 0.4 and -2.67 ± 0.48.
With UCGUAGCAAUAUUACGUGUU, the “self-splicing fitness (ln)” value (30 °C) is -3.06 ± 0.21 and the “self-splicing fitness (ln)” value (37 °C) is -2.46 ± 0.19.
With UCUAAGCAAUAUUACGACCU, the “self-splicing fitness (ln)” value by setting is: (30 °C) -3.7 ± 0.35; (37 °C) -1.92 ± 0.24.
In the same order, the values of UCUAAGCAAUAUUACGACGU are -0.257 ± 0.087 and -0.334 ± 0.11.
For UCUAAGCAAUAUUACGAGAC, the “self-splicing fitness (ln)” value reads like this: (30 °C) -1.53 ± 0.12; (37 °C) -2.52 ± 0.2.
As to UCUAAGCAAUAUUACGAUCC, the “self-splicing fitness (ln)” value was -3.87 ± 0.39 (30 °C) and -2.5 ± 0.36 (37 °C).
Regarding UCUAAGCAAUAUUACGCUAG, the “self-splicing fitness (ln)” value reads like this: (30 °C) -2.73 ± 0.16; (37 °C) -2.89 ± 0.26.
Take UCUAAGCAAUAUUACGCUCU: the “self-splicing fitness (ln)” value (30 °C) was -3.32 ± 0.47 and the “self-splicing fitness (ln)” value (37 °C) is -2.58 ± 0.41.
As to UCUAAGCAAUAUUACGGAAU, the “self-splicing fitness (ln)” value (30 °C) was -4.16 ± 0.46 and the “self-splicing fitness (ln)” value (37 °C) was -1.64 ± 0.33.
In the same order, the values of UCUAAGCAAUAUUACGGACC are -1.71 ± 0.24 and -1.99 ± 0.32.
Regarding UCUAAGCAAUAUUACGGAGU, the “self-splicing fitness (ln)” value was -2.04 ± 0.13 (30 °C) and -0.505 ± 0.14 (37 °C).
Consider UCUAAGCAAUAUUACGGCCU, for which, under “30 °C”, the “self-splicing fitness (ln)” value is -3.76 ± 0.41.
Take UCUAAGCAAUAUUACGGUAC: the “self-splicing fitness (ln)” value reads like this: (30 °C) -3.5 ± 0.3; (37 °C) -2.78 ± 0.4.
On the same counts, the results for UCUAAGCAAUAUUACGGUAU are -4.13 ± 0.27 and -1.56 ± 0.21.
As to UCUAAGCAAUAUUACGGUUA, the “self-splicing fitness (ln)” value (30 °C) was -3.9 ± 0.42 and the “self-splicing fitness (ln)” value (37 °C) is -1.76 ± 0.17.
Take UCUAAGCAAUAUUACGUAUA: the “self-splicing fitness (ln)” value is, setting by setting: (30 °C) -2.55 ± 0.17; (37 °C) -1.45 ± 0.12.
UCUAAGCAAUAUUACGUAUU: the “self-splicing fitness (ln)” value reads like this: (30 °C) -3.09 ± 0.2; (37 °C) -2.16 ± 0.2.
In the same order, the values of UCUAAGCAAUAUUACGUCAG are -1.23 ± 0.073 and -0.611 ± 0.08.
On the same counts, the results for UCUAAGCAAUAUUACGUCCU are -2.72 ± 0.28 and -0.964 ± 0.21.
As for UCUAAGCAAUAUUACGUGAG, the “self-splicing fitness (ln)” value (30 °C) is -1.32 ± 0.074 and the “self-splicing fitness (ln)” value (37 °C) is 0.269 ± 0.096.
UCUAAGCAAUAUUACGUGCU: the “self-splicing fitness (ln)” value by setting is: (30 °C) -4.04 ± 0.34; (37 °C) -2.37 ± 0.2.
Take UCUAAGCAAUAUUACGUUCG: the “self-splicing fitness (ln)” value reads like this: (30 °C) -1.38 ± 0.12; (37 °C) -1.12 ± 0.12.
Turning to UCUCAGCAAUAUUACGAAAA, the “self-splicing fitness (ln)” value was -1.84 ± 0.26 (30 °C) and -2.59 ± 0.26 (37 °C).
In the case of UCUCAGCAAUAUUACGAACG, the “self-splicing fitness (ln)” value was -1.88 ± 0.12 (30 °C) and -0.666 ± 0.14 (37 °C).
With UCUCAGCAAUAUUACGAAGG, the “self-splicing fitness (ln)” value is, setting by setting: (30 °C) -2.79 ± 0.19; (37 °C) -0.314 ± 0.14.
Regarding UCUCAGCAAUAUUACGAGAC, the “self-splicing fitness (ln)” value is -2.81 ± 0.15 (30 °C) and -2.71 ± 0.21 (37 °C).
For UCUCAGCAAUAUUACGCAAG, the “self-splicing fitness (ln)” value is -4.47 ± 0.39 (30 °C) and -2.02 ± 0.2 (37 °C).
In the same order, the values of UCUCAGCAAUAUUACGCGUA are -1.04 ± 0.1 and -0.966 ± 0.1.
As for UCUCAGCAAUAUUACGCUCC, the “self-splicing fitness (ln)” value (30 °C) was -1.02 ± 0.39.
UCUCAGCAAUAUUACGGCCU: where the note is “37 °C”, the “self-splicing fitness (ln)” value is -1.67 ± 0.34.
For UCUCAGCAAUAUUACGGGAA, the “self-splicing fitness (ln)” value runs as follows: (30 °C) -2.28 ± 0.17; (37 °C) -0.762 ± 0.11.
In the same order, the values of UCUCAGCAAUAUUACGGGAG are -2.79 ± 0.2 and -1.4 ± 0.16.
For UCUCAGCAAUAUUACGGGAU, the “self-splicing fitness (ln)” value was -4.25 ± 0.27 (30 °C) and -2.87 ± 0.19 (37 °C).
Consider UCUCAGCAAUAUUACGGGCA, for which the “self-splicing fitness (ln)” value is, setting by setting: (30 °C) -0.117 ± 0.073; (37 °C) 0.575 ± 0.09.
As to UCUCAGCAAUAUUACGGGGC, the “self-splicing fitness (ln)” value is, setting by setting: (30 °C) -3.03 ± 0.23; (37 °C) -3.85 ± 0.37.
Consider UCUCAGCAAUAUUACGGGUU, for which the “self-splicing fitness (ln)” value runs as follows: (30 °C) -2.06 ± 0.081; (37 °C) -1.27 ± 0.1.
On the same counts, the results for UCUCAGCAAUAUUACGGUUU are -1.91 ± 0.082 and -0.695 ± 0.081.
Take UCUCAGCAAUAUUACGUCCG: the “self-splicing fitness (ln)” value is -2.5 ± 0.28 (30 °C) and -2.26 ± 0.41 (37 °C).
On to UCUCAGCAAUAUUACGUCCU, for which the “self-splicing fitness (ln)” value was -2.36 ± 0.14 (30 °C) and -2.57 ± 0.24 (37 °C).
Regarding UCUCAGCAAUAUUACGUGCC, the “self-splicing fitness (ln)” value by setting is: (30 °C) -3.38 ± 0.26; (37 °C) -1.71 ± 0.23.
